Source: patent US7067117 (CAMBRIDGE UNIVERSITY TECHNICAL SERVICES, dated 2006)
“And” between values parts separate entries of the source, which are not always exact repeats. Equal values may be shown once. Read-outs that look alike come from different tables or passages of the source. Ends that are not written are not given here.

Assays:
[1] = biological target: chemokine receptors on THP-1 cells; assay: cell-based or functional assay
[2] = biological target: T1, Duffy Antigen Receptor for Chemokines (DARC) (human) (UniProt Q16570); assay: DARC binding; given as 'affinity constant'
T1 sequence (looked up): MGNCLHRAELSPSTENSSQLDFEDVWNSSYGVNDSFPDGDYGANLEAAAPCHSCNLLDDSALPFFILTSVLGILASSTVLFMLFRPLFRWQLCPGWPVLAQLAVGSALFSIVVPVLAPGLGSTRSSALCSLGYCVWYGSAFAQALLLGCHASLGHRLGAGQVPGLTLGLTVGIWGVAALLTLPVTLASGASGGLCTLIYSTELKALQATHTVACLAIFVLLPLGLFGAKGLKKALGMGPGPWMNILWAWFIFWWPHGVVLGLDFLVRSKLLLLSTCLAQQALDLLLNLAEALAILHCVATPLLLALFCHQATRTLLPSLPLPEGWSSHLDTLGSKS

[3] = biological target: chemokine receptors on THP-1 cells; assay: binding to chemokine receptors on THP-1 cells; given as 'association constant'
[4] = biological target: T1, Duffy Antigen Receptor for Chemokines (DARC) (human); assay: estimated ka for binding to red blood cells divided by inhibitory ED50 (THP-1 migration)
[5] = biological target: chemokine receptors on THP-1 cells; assay: cell-based or functional assay; remark: listed apart in the source
[6] = biological target: T1, Duffy Antigen Receptor for Chemokines (DARC) (human); assay: ka for red blood cells divided by ED50
[7] = biological target: T1, Duffy Antigen Receptor for Chemokines (DARC) (human); assay: estimated ka for binding to red blood cells divided by average inhibitory ED50 (THP-1 migration)
[8] = biological target: T2, Duffy Antigen Receptor for Chemokines (DARC) (human, UniProt Q16570 1-336); assay: DARC binding on red blood cells
T2 construct: whole, on cells
T2 sequence (looked up): T1 sequence (looked up)
Procedure: (§1) To overcome this difficulty, the ka for association of DARC with peptide 3(1–12)[MCP-1] (SEQ ID NO:1) and peptide 2(1–15)[MCP-1] […] After binding has reached equilibrium (30 minutes at 37° C.), the cells are separated from the unbound label by centrifugation for 5 minutes through a sucrose gradient. Counts associated with the cells are then determined by gamma-counting scintigraphy. […] Furthermore, Scatchard analysis confirms the presence of a single high affinity binding site with 500–1000 copies per cell, consistent with the known properties of DARC.

[9] = biological target: T2, Duffy Antigen Receptor for Chemokines …; assay: Duffy binding
Procedure: as §1

[10] = biological target: chemokine receptors on THP-1 cells; assay: cell-based or functional assay; remark: listed apart in the source
[11] = biological target: T3, Duffy Antigen Receptor for Chemokines (DARC) (human, UniProt Q16570 1-336); assay: DARC binding
T3 chain: T1 sequence (looked up)

[12] = biological target: T2, Duffy Antigen Receptor for Chemokines …; assay: competition binding analysis using red blood cells
Procedure: as §1

[13] = biological target: T2, Duffy Antigen Receptor for Chemokines …; assay: ka for binding to red blood cells divided by ka for binding to THP-1 cells
[14] = biological target: chemokine receptors on THP-1 cells; assay: estimated ka for binding to THP-1 cells (competition binding analysis), printed under 'AVERAGE ED50 (µM)'
[15] = biological target: T2, Duffy Antigen Receptor for Chemokines …; assay: DARC binding
Procedure: as §1

[16] = biological target: chemokine receptors on the surface of Jurkat cells; assay: biotinylated peptide binding to Jurkat cells
[17] = biological target: chemokine receptors on THP-1 cells; assay: biotinylated derivative mixed with THP-1 cells
[18] = biological target: T4, Duffy Antigen Receptor for Chemokines (DARC) (human), Q16570; assay: estimated ka for binding to red blood cells divided by average inhibitory ED50 (THP-1 migration); conditions: remark: other sources report otherwise
T4 chain: T1 sequence (looked up)

A % inhibition of migration induced by MCP-1 at 100 µM tripeptide [1] of 95%, a % inhibition of migration induced by SDF1α at 100 µM tripeptide [1] of 29% and an ED50 as inhibitor of MCP-1 induced THP-1 migration [1] of 2 to 5 µM were found for Peptide 3(7-9)[MCP-1], i.e, KQK in this work. The ED50 for inhibition of THP-1 migration induced by the one chemokine it is specific for (MCP-1) [1] was 6 µM, the ED50 for inhibition of THP-1 migration versus MCP1 [1] was 7 µM and the Kd [2] was 15 µM. The Kd [3] was 0.5 µM and 1 µM and the Duffy selectivity [4] was 22.3.

An ED50 for inhibition of THP-1 migration versus IL8 [5] of less than 1 µM, an ED50 for inhibition of THP-1 migration versus MCP1 [5] of 8 µM and an ED50 for inhibition of THP-1 migration versus MIP1α [5] of less than 1 µM were found for WVQ [Peptide 3(10-12)[MCP-1], i.e., WVQ] in this work. The ED50 for inhibition of THP-1 migration versus SDF1α [5] was less than 1 µM, the ED50 for inhibition of migration induced by IL-8 [5] was 1 µM and the ED50 for inhibition of migration induced by MCP-1 [5] was 8 µM. It also gave an ED50 for inhibition of migration induced by MIP1α [5] of 7.5 µM, an ED50 for inhibition of migration induced by RANTES [5] of 1.5 µM and an ED50 for inhibition of migration induced by SDF1α [5] of 2 µM. For the same molecule, the average ED50 for inhibition of THP-1 migration induced by each of the chemokines [5] was 2 µM, the Duffy selectivity [6] was 10 and the Kd [2] was 2 µM. For the same molecule, the Duffy selectivity [7] was 24.8.

A Kd [8] of roughly 50 µM was found for SYRRITSSK [Peptide 2(1-9)[MCP-1]] in this work.

B1: peptide 2(1-15)[MCP-1] (peptide)
peptide: SYRRITSSKCPKEAV
notes: synthetic linear L-form peptide; also called Pep2[MCP1]; Pep2(1-15)[MCP1]
A Kd [9] of 100 µM, an ED50 for inhibition of chemokine-induced THP-1 migration [10] greater than 100 µM and an inhibition of chemokine-induced THP-1 migration at 100 µM [10] of 19% were found for B1 in this work. It also gave a promotion of THP-1 migration (agonist activity) [10] of 10 µM, a Kd [11] of 0.35 µM and a Kd [12] of less than 0.5 µM. For the same molecule, the Duffy selectivity [13] was 0.18 ratio and the Kd [14] was 2 µM.

A Kd [15] of 20 to 100 µM was found for SYRRITSSKSPKEAV [Ser10 variant of peptide 2(1-15)[MCP-1]] in this work.

A Kd [16] of 3 µM and a Kd [17] of 1.9 µM were found for SYRRITSSKCPKEAV (also: biotinylated, position not given here) [biotinylated peptide 2(1-15)[MCP-1]] in this work.

A % inhibition of THP-1 migration at 100 µM versus IL8 [10] of 103%, a % inhibition of THP-1 migration at 100 µM versus MCP-1 [10] of 112% and a % inhibition of THP-1 migration at 100 µM versus MIP1α [10] of 99% were found for EICADPKQKWVQ [peptide 3(1-12)[MCP-1]] in this work. It also gave a % inhibition of THP-1 migration at 100 µM versus SDF-1α [10] of 107%, an ED50 for inhibition of THP-1 migration versus IL8 [10] of 14 µM and an ED50 for inhibition of THP-1 migration versus MCP-1 [10] of 8 µM. For the same molecule, the ED50 for inhibition of THP-1 migration versus MIP1α [10] was 8 µM, the ED50 for inhibition of THP-1 migration versus SDF-1α [10] was 10 µM and the average ED50 for inhibition of THP-1 migration induced by each of the chemokines [10] was 10 µM. For the same molecule, the inhibition of MCP-1 induced THP-1 migration at 100 µM, peptide incubated with the cells [10] was greater than 99%, the inhibition of MCP-1 induced THP-1 migration at 100 µM, peptide incubated with the chemokine [10] was 17% and the Duffy selectivity [18] was 1.
